These are literature values, as cited in PMC4041429.

This data set concerns the target β clamp (Escherichia coli) (UniProt P0A988).

Regarding β clamp (from UniProt P0A988), the Kd (in general, the constant that tells how readily two partners part at equilibrium) was less than 50 nM.
